One experiment concerns the target T1, human GLP-1 receptor (human, UniProt P43220 24-463).
T1 construct: whole, on cells; Assayed as crude membranes of stably transfected HEK293 cells; also called hGLP1R; hGLP-1R
Kind of experiment: SPA, displacement of [125I]-GLP-1 from hGLP-1R membranes, 0.1% bacitracin. The method, boiled down:
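Binding buffer: 25 mM HEPES pH 7.4, 2.5 mM CaCl₂, 1 mM MgCl₂, 0.1% bacitracin, 0.003% Tween-20, protease inhibitors without EDTA. Four-parameter nonlinear regression; Kᵢ given as geometric mean ± SEM, n = independent replicates run on different days.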
In general terms: In a radioligand displacement assay an active substance lowers the binding of a labelled ligand.

The target of another experiment is T2, human glucagon receptor (human, UniProt P47871 26-477).
T2 construct: whole, on cells; Assayed as crude membranes of stably transfected HEK293 cells; also called hGcgR; GcgR
The experiment in a line: SPA, displacement of [125I]-Gcg from hGcgR membranes, 0.1% bacitracin. The gist of the method: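 Binding buffer: 25 mM HEPES pH 7.4, 2.5 mM CaCl₂, 1 mM MgCl₂, 0.003% Tween-20, protease inhibitors without EDTA. Counted by scintillation after 12 h incubation/settling at room temperature. Four-parameter nonlinear fit; Kᵢ given as geometric mean ± SEM of independent replicates run on different days.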

The target in experiment [1] is T3, human glucose-dependent insulinotropic polypeptide (GIP) receptor (human, UniProt P48546 22-466).
T3 construct: whole, on cells; Assayed as crude membranes of stably transfected CHO cells; also called hGIPR; human GIP receptor
T3 sequence (looked up): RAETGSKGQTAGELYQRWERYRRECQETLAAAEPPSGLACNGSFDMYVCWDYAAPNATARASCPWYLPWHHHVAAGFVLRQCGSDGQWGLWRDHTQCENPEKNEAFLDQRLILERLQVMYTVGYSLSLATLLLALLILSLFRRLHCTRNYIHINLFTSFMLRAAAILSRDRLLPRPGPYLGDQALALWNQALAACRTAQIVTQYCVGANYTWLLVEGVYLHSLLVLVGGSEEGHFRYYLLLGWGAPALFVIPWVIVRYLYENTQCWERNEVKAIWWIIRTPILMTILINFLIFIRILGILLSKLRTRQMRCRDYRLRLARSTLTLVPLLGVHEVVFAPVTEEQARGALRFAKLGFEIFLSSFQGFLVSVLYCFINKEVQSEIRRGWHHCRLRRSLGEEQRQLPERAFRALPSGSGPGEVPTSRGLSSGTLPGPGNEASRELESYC
The experiment in a line: SPA, displacement of [125I]-GIP from hGIPR membranes, 0.1% bacitracin.

Starred links: 1 amine or outer side, 2 acyl side, 3 side chain; linkers in the order of their positions; H or OH if unused. Non-standard residues stand in square brackets, D forms with d. Groups on a side chain read outwards from the residue. No end group written: not given here. *: point of attachment. C20 diacid = O=C(O)CCCCCCCCCCCCCCCCCCC(=O)*; γGlu = O=C(O)[C@H](CCC(=O)[*:2])N[*:1]; αMeY = C[C@](N)(Cc1ccc(O)cc1)C(=O)O; 4Pal = N[C@@H](Cc1ccncc1)C(=O)O; αMeL = CC(C)C[C@](C)(N)C(=O)O; AEEA = NCCOCCOCC(=O)O; Aib = CC(C)(N)C(=O)O

The Ki is a measure of affinity in units of concentration, obtained from inhibition or displacement.

T2 sequence (P47871 26-477): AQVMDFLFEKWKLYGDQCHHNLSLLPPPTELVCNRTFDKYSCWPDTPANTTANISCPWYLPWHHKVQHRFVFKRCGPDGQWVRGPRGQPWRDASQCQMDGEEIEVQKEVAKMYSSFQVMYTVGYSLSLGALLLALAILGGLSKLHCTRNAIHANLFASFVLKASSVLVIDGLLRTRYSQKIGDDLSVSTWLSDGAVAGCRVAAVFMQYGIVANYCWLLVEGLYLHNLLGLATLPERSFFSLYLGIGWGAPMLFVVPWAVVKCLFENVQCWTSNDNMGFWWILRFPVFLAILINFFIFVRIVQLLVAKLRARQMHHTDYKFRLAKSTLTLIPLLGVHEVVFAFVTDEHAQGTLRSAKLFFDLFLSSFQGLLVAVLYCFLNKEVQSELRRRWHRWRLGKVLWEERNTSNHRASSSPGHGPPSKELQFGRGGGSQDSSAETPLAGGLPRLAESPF

B1: Example 85 (peptide)
peptide: Y[Aib]EGTFISDYSI[αMeL]LDEK([AEEA-AEEA-γGlu-C20 diacid])HQ[Aib]DFVE[4Pal]LLAAGPSSGAPPPS-NH2
modifications: N-terminus assumed
SMILES: CC[C@H](C)[C@H](NC(=O)[C@H](Cc1ccccc1)NC(=O)[C@@H](NC(=O)CNC(=O)[C@H](CCC(=O)O)NC(=O)C(C)(C)NC(=O)[C@@H](N)Cc1ccc(O)cc1)[C@@H](C)O)C(=O)N[C@@H](CO)C(=O)N[C@@H](CC(=O)O)C(=O)N[C@@H](Cc1ccc(O)cc1)C(=O)N[C@@H](CO)C(=O)N[C@H](C(=O)N[C@@](C)(CC(C)C)C(=O)N[C@@H](CC(C)C)C(=O)N[C@@H](CC(=O)O)C(=O)N[C@@H](CCC(=O)O)C(=O)N[C@@H](CCCCNC(=O)COCCOCCNC(=O)COCCOCCNC(=O)CC[C@H](NC(=O)CCCCCCCCCCCCCCCCCCC(=O)O)C(=O)O)C(=O)N[C@@H](Cc1c[nH]cn1)C(=O)N[C@@H](CCC(N)=O)C(=O)NC(C)(C)C(=O)N[C@@H](CC(=O)O)C(=O)N[C@@H](Cc1ccccc1)C(=O)N[C@H](C(=O)N[C@@H](CCC(=O)O)C(=O)N[C@@H](Cc1ccncc1)C(=O)N[C@@H](CC(C)C)C(=O)N[C@@H](CC(C)C)C(=O)N[C@@H](C)C(=O)N[C@@H](C)C(=O)NCC(=O)N1CCC[C@H]1C(=O)N[C@@H](CO)C(=O)N[C@@H](CO)C(=O)NCC(=O)N[C@@H](C)C(=O)N1CCC[C@H]1C(=O)N1CCC[C@H]1C(=O)N1CCC[C@H]1C(=O)N[C@@H](CO)C(N)=O)C(C)C)[C@@H](C)CC
B1: the Ki with human GLP-1 receptor turned out to be 220 nM; with human glucagon receptor, 800 nM; in experiment [1], 0.0529 nM.

B2: Example 86 (peptide)
peptide: Y[Aib]EGTFISDYSI[αMeL]LDEK([AEEA-AEEA-γGlu-C20 diacid])HQ[Aib]DFVE[4Pal]LLAGGPSSGAPPPS-NH2
modifications: N-terminus assumed
SMILES: CC[C@H](C)[C@H](NC(=O)[C@H](Cc1ccccc1)NC(=O)[C@@H](NC(=O)CNC(=O)[C@H](CCC(=O)O)NC(=O)C(C)(C)NC(=O)[C@@H](N)Cc1ccc(O)cc1)[C@@H](C)O)C(=O)N[C@@H](CO)C(=O)N[C@@H](CC(=O)O)C(=O)N[C@@H](Cc1ccc(O)cc1)C(=O)N[C@@H](CO)C(=O)N[C@H](C(=O)N[C@@](C)(CC(C)C)C(=O)N[C@@H](CC(C)C)C(=O)N[C@@H](CC(=O)O)C(=O)N[C@@H](CCC(=O)O)C(=O)N[C@@H](CCCCNC(=O)COCCOCCNC(=O)COCCOCCNC(=O)CC[C@H](NC(=O)CCCCCCCCCCCCCCCCCCC(=O)O)C(=O)O)C(=O)N[C@@H](Cc1c[nH]cn1)C(=O)N[C@@H](CCC(N)=O)C(=O)NC(C)(C)C(=O)N[C@@H](CC(=O)O)C(=O)N[C@@H](Cc1ccccc1)C(=O)N[C@H](C(=O)N[C@@H](CCC(=O)O)C(=O)N[C@@H](Cc1ccncc1)C(=O)N[C@@H](CC(C)C)C(=O)N[C@@H](CC(C)C)C(=O)N[C@@H](C)C(=O)NCC(=O)NCC(=O)N1CCC[C@H]1C(=O)N[C@@H](CO)C(=O)N[C@@H](CO)C(=O)NCC(=O)N[C@@H](C)C(=O)N1CCC[C@H]1C(=O)N1CCC[C@H]1C(=O)N1CCC[C@H]1C(=O)N[C@@H](CO)C(N)=O)C(C)C)[C@@H](C)CC
With B2, the Ki with human GLP-1 receptor is 108 nM; in the experiment with human glucagon receptor, 462 nM; in experiment [1], 0.0533 nM.

B3: Example 91 (peptide)
peptide: Y[Aib]EGTFISDYSI[αMeL]LDKK([AEEA-AEEA-γGlu-C20 diacid])HQ[Aib]DFVE[αMeY]LLEGGPSSGAPPPS-NH2
modifications: N-terminus assumed
SMILES: CC[C@H](C)[C@H](NC(=O)[C@H](Cc1ccccc1)NC(=O)[C@@H](NC(=O)CNC(=O)[C@H](CCC(=O)O)NC(=O)C(C)(C)NC(=O)[C@@H](N)Cc1ccc(O)cc1)[C@@H](C)O)C(=O)N[C@@H](CO)C(=O)N[C@@H](CC(=O)O)C(=O)N[C@@H](Cc1ccc(O)cc1)C(=O)N[C@@H](CO)C(=O)N[C@H](C(=O)N[C@@](C)(CC(C)C)C(=O)N[C@@H](CC(C)C)C(=O)N[C@@H](CC(=O)O)C(=O)N[C@@H](CCCCN)C(=O)N[C@@H](CCCCNC(=O)COCCOCCNC(=O)COCCOCCNC(=O)CC[C@H](NC(=O)CCCCCCCCCCCCCCCCCCC(=O)O)C(=O)O)C(=O)N[C@@H](Cc1c[nH]cn1)C(=O)N[C@@H](CCC(N)=O)C(=O)NC(C)(C)C(=O)N[C@@H](CC(=O)O)C(=O)N[C@@H](Cc1ccccc1)C(=O)N[C@H](C(=O)N[C@@H](CCC(=O)O)C(=O)N[C@@](C)(Cc1ccc(O)cc1)C(=O)N[C@@H](CC(C)C)C(=O)N[C@@H](CC(C)C)C(=O)N[C@@H](CCC(=O)O)C(=O)NCC(=O)NCC(=O)N1CCC[C@H]1C(=O)N[C@@H](CO)C(=O)N[C@@H](CO)C(=O)NCC(=O)N[C@@H](C)C(=O)N1CCC[C@H]1C(=O)N1CCC[C@H]1C(=O)N1CCC[C@H]1C(=O)N[C@@H](CO)C(N)=O)C(C)C)[C@@H](C)CC
For the molecule B3, the figures for the Ki (with human GLP-1 receptor; with human glucagon receptor; in experiment [1]) were 37.4 nM, 54.4 nM and 0.122 nM, respectively.

B4: Example 89 (peptide)
peptide: Y[Aib]EGTLISDYSI[αMeL]LDKK([AEEA-AEEA-γGlu-C20 diacid])HQ[Aib]DFVE[4Pal]LLEAGPSSGAPPPS-NH2
modifications: N-terminus assumed
SMILES: CC[C@H](C)[C@H](NC(=O)[C@H](CC(C)C)NC(=O)[C@@H](NC(=O)CNC(=O)[C@H](CCC(=O)O)NC(=O)C(C)(C)NC(=O)[C@@H](N)Cc1ccc(O)cc1)[C@@H](C)O)C(=O)N[C@@H](CO)C(=O)N[C@@H](CC(=O)O)C(=O)N[C@@H](Cc1ccc(O)cc1)C(=O)N[C@@H](CO)C(=O)N[C@H](C(=O)N[C@@](C)(CC(C)C)C(=O)N[C@@H](CC(C)C)C(=O)N[C@@H](CC(=O)O)C(=O)N[C@@H](CCCCN)C(=O)N[C@@H](CCCCNC(=O)COCCOCCNC(=O)COCCOCCNC(=O)CC[C@H](NC(=O)CCCCCCCCCCCCCCCCCCC(=O)O)C(=O)O)C(=O)N[C@@H](Cc1c[nH]cn1)C(=O)N[C@@H](CCC(N)=O)C(=O)NC(C)(C)C(=O)N[C@@H](CC(=O)O)C(=O)N[C@@H](Cc1ccccc1)C(=O)N[C@H](C(=O)N[C@@H](CCC(=O)O)C(=O)N[C@@H](Cc1ccncc1)C(=O)N[C@@H](CC(C)C)C(=O)N[C@@H](CC(C)C)C(=O)N[C@@H](CCC(=O)O)C(=O)N[C@@H](C)C(=O)NCC(=O)N1CCC[C@H]1C(=O)N[C@@H](CO)C(=O)N[C@@H](CO)C(=O)NCC(=O)N[C@@H](C)C(=O)N1CCC[C@H]1C(=O)N1CCC[C@H]1C(=O)N1CCC[C@H]1C(=O)N[C@@H](CO)C(N)=O)C(C)C)[C@@H](C)CC
As to B4, the Ki was 294 nM with human GLP-1 receptor, 611 nM in the experiment with human glucagon receptor and 0.072 nM in experiment [1].

B5: Example 90 (peptide)
peptide: Y[Aib]EGTFISDYSI[αMeL]LDKK([AEEA-AEEA-γGlu-C20 diacid])HQ[Aib]DFVE[αMeY]LLEAGPSSGAPPPS-NH2
modifications: N-terminus assumed
SMILES: CC[C@H](C)[C@H](NC(=O)[C@H](Cc1ccccc1)NC(=O)[C@@H](NC(=O)CNC(=O)[C@H](CCC(=O)O)NC(=O)C(C)(C)NC(=O)[C@@H](N)Cc1ccc(O)cc1)[C@@H](C)O)C(=O)N[C@@H](CO)C(=O)N[C@@H](CC(=O)O)C(=O)N[C@@H](Cc1ccc(O)cc1)C(=O)N[C@@H](CO)C(=O)N[C@H](C(=O)N[C@@](C)(CC(C)C)C(=O)N[C@@H](CC(C)C)C(=O)N[C@@H](CC(=O)O)C(=O)N[C@@H](CCCCN)C(=O)N[C@@H](CCCCNC(=O)COCCOCCNC(=O)COCCOCCNC(=O)CC[C@H](NC(=O)CCCCCCCCCCCCCCCCCCC(=O)O)C(=O)O)C(=O)N[C@@H](Cc1c[nH]cn1)C(=O)N[C@@H](CCC(N)=O)C(=O)NC(C)(C)C(=O)N[C@@H](CC(=O)O)C(=O)N[C@@H](Cc1ccccc1)C(=O)N[C@H](C(=O)N[C@@H](CCC(=O)O)C(=O)N[C@@](C)(Cc1ccc(O)cc1)C(=O)N[C@@H](CC(C)C)C(=O)N[C@@H](CC(C)C)C(=O)N[C@@H](CCC(=O)O)C(=O)N[C@@H](C)C(=O)NCC(=O)N1CCC[C@H]1C(=O)N[C@@H](CO)C(=O)N[C@@H](CO)C(=O)NCC(=O)N[C@@H](C)C(=O)N1CCC[C@H]1C(=O)N1CCC[C@H]1C(=O)N1CCC[C@H]1C(=O)N[C@@H](CO)C(N)=O)C(C)C)[C@@H](C)CC
In the case of B5, the Ki with human GLP-1 receptor was 102 nM; in the experiment with human glucagon receptor, 112 nM; in experiment [1], 0.129 nM.

(Values after patent US20210032299A1 (Eli Lilly, published 2021).)
